Laboratory results published in the supplement of paper PMC9112550, “Optimization of the antimicrobial peptide Bac7 by deep mutational scanning” (BMC Biology, 2022).

Test system: Escherichia coli TOP10
Assay: shrunken log2 fold change of peptide-encoding DNA abundance (4.5 h post-induction vs induction); higher = less antimicrobial activity (less host growth inhibition)
Settings: time post-induction: 4.5 h; library: site-saturation at positions 5, 18, 19, 20
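Further: peptides expressed intracellularly from a pBAD plasmid library in pooled LB shake-flask culture, induced with 0.3% L-arabinose, DNA abundance read by NGS, three biological replicates, DESeq2 with apeglm shrinkage.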

Sequence	shrunken log2 fold change
RRIRARPPRLPRPRPRPNCPPRP	-0.0021
RRIRGRPPRLPRPRPRPRELPRP	1.31
RRIRDRPPRLPRPRPRPGAGPRP	0.914
RRIRTRPPRLPRPRPRPDHCPRP	-0.116
RRIRTRPPRLPRPRPRPSGPPRP	-0.339
RRIRSRPPRLPRPRPRPRSWPRP	0.0511
RRIRLRPPRLPRPRPRPVEHPRP	-0.174
RRIRLRPPRLPRPRPRPWHTPRP	-0.314
RRIRHRPPRLPRPRPRPAHFPRP	0.165
RRIRSRPPRLPRPRPRPLRLPRP	0.54
RRIRHRPPRLPRPRPRPNPSPRP	-0.0145
RRIRQRPPRLPRPRPRPMFNPRP	-0.436
RRIRIRPPRLPRPRPRPRCAPRP	0.204
RRIRSRPPRLPRPRPRPLQLPRP	-0.456
RRIRWRPPRLPRPRPRPEYIPRP	-0.0519
RRIRERPPRLPRPRPRPNNRPRP	-0.315
RRIRQRPPRLPRPRPRPRPWPRP	0.858
RRIRGRPPRLPRPRPRPDQWPRP	0.665
RRIRGRPPRLPRPRPRPTMGPRP	0.875
RRIRKRPPRLPRPRPRPQWVPRP	0.0548
RRIRWRPPRLPRPRPRPMCIPRP	-0.102
RRIRVRPPRLPRPRPRPQPKPRP	0.0199
RRIRWRPPRLPRPRPRPSCTPRP	-0.11
RRIRPRPPRLPRPRPRPKEVPRP	-0.0501
RRIRWRPPRLPRPRPRPQEWPRP	0.248

Sequence	shrunken log2 fold change
RRIRMRPPRLPRPRPRPKYVPRP	-0.0144
RRIRPRPPRLPRPRPRPFINPRP	-0.382
RRIRRRPPRLPRPRPRPHPYPRP	-0.069
RRIRARPPRLPRPRPRPDRDPRP	-0.0499
RRIRPRPPRLPRPRPRPEYTPRP	-0.0863
RRIRFRPPRLPRPRPRPTATPRP	0.355
RRIRRRPPRLPRPRPRPDYRPRP	0.0309
RRIRRRPPRLPRPRPRPQWLPRP	0.431
RRIRTRPPRLPRPRPRPPVCPRP	0.713
RRIRRRPPRLPRPRPRPSIKPRP	2.9
RRIRSRPPRLPRPRPRPYLMPRP	-0.566
RRIRERPPRLPRPRPRPPHQPRP	-0.0506
RRIRHRPPRLPRPRPRPLQQPRP	0.0446
RRIRYRPPRLPRPRPRPPKLPRP	-0.172
RRIRDRPPRLPRPRPRPREWPRP	-0.00146
RRIRHRPPRLPRPRPRPVTSPRP	-0.000369
RRIRHRPPRLPRPRPRPDVSPRP	-0.198
RRIRHRPPRLPRPRPRPNHRPRP	-0.0366
RRIRERPPRLPRPRPRPCSLPRP	-0.264
RRIRIRPPRLPRPRPRPLIAPRP	-0.24
RRIRSRPPRLPRPRPRPPQEPRP	0.295
RRIRWRPPRLPRPRPRPFSYPRP	-0.203
RRIRIRPPRLPRPRPRPCFAPRP	-0.1
RRIRKRPPRLPRPRPRPTYNPRP	-0.0201
RRIRTRPPRLPRPRPRPVVQPRP	-0.062

Sequence	shrunken log2 fold change
RRIRCRPPRLPRPRPRPDSLPRP	-0.0818
RRIRWRPPRLPRPRPRPEFVPRP	0.423
RRIRFRPPRLPRPRPRPCHDPRP	0.236
RRIRERPPRLPRPRPRPNSRPRP	-0.481
RRIRCRPPRLPRPRPRPREGPRP	1.09
RRIRLRPPRLPRPRPRPLYWPRP	-0.372
RRIRYRPPRLPRPRPRPNYLPRP	-0.161
RRIRDRPPRLPRPRPRPHKCPRP	-0.372
RRIRLRPPRLPRPRPRPVERPRP	-0.0146
RRIRGRPPRLPRPRPRPDPWPRP	0.53
RRIRRRPPRLPRPRPRPSIPPRP	-0.0753
RRIRYRPPRLPRPRPRPPATPRP	0.407
RRIRRRPPRLPRPRPRPDRHPRP	-0.0411
RRIRQRPPRLPRPRPRPEECPRP	-0.0135
RRIRLRPPRLPRPRPRPILPPRP	-0.0368
RRIRQRPPRLPRPRPRPKDTPRP	-0.0272
RRIRGRPPRLPRPRPRPMRFPRP	0.112
RRIRYRPPRLPRPRPRPRIWPRP	-0.0174
RRIRARPPRLPRPRPRPFVKPRP	0.0302
RRIRERPPRLPRPRPRPDIMPRP	-0.196
RRIRPRPPRLPRPRPRPREYPRP	0.115
RRIRGRPPRLPRPRPRPPCRPRP	0.637
RRIRMRPPRLPRPRPRPVLLPRP	0.291
RRIRPRPPRLPRPRPRPVNKPRP	-0.521
RRIRFRPPRLPRPRPRPFSMPRP	-0.232
